Measured values as given in US20220153875A1, “ANTIGEN-BINDING MOLECULE CONTAINING ANTIGEN-BINDING DOMAIN OF WHICH BINDING ACTIVITY TO ANTIGEN IS CHANGED DEPENDING ON MTA, AND LIBRARY FOR OBTAINING SAID ANTIGEN-BINDING DOMAIN” (Chugai Seiyaku Kabushiki Kaisha, priority 2019, published 2022).
Substitutions are numbered along the chain they refer to. Numbers in names are those of the source.

Tests used:
hIL-6R [1] = target: T1, hIL-6R (Homo sapiens, UniProt P08887); experiment: Surface plasmon resonance (Biacore T200): C03H-BH076N17/C03L-KT0 binding to hIL-6R under MTA or adenosine
T1 sequence (P08887 20-357): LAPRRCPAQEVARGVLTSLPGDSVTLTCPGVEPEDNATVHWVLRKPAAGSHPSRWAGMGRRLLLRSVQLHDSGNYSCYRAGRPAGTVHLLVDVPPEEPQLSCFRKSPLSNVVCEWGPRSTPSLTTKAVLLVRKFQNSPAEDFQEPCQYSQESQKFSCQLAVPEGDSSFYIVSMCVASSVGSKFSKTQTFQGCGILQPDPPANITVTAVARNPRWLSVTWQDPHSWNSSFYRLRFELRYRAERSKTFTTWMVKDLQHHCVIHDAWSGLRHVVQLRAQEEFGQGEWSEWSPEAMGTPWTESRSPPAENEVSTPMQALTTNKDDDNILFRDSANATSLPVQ
Description: Using Biacore T200 (GE Healthcare), the effects of MTA and adenosine on the antigen-antibody reaction between C03H-BH076N17/C03L-KT0 and hIL-6R were evaluated. TBS, 0.02% (w/v) Tween20, pH 7.4 was used as the running buffer. ProA/G (Pierce) was immobilized onto Sensor Chip CM5 (GE Healthcare) by amine coupling, and after the antibody was immobilized on it, various antigens were allowed to interact as analytes, to observe changes in the antigen-antibody binding amount. The running buffer and a buffer in which either MTA or adenosine was added to the running buffer were used for antigen dilution, which were prepared in a series of stepwise concentrations. Biacore T200 Evaluation Software (GE Healthcare) was used to calculate the parameters.

hIL-6R [2] = target: T1, hIL-6R; experiment: Biacore T200: hIL-6R binding amount at different MTA concentrations; details: MTA 0.1, 1, 10, 100 μM, 25° C.
Description: For the MTA-dependently binding anti-hIL-6R antibody cloned in Example (4-5) (6RS2T007H-F760mnN17/6RS2T007L-KT0), the change in the amount of antigen binding dependent on MTA concentration was assessed using Biacore T200 (GE Healthcare). The measurement was done at 25° C., using 20 mM ACES added with MTA at final concentrations of 0.1, 1, 10, and 100 μM, 150 mM NaCl, 0.05% (w/v) Tween20, pH 7.4 as the running buffer Series S Sensor Chip CM4 was used as the sensor chip, ProA/G was immobilized by amine coupling with the antibody mobilised on the top of that, after which hIL-6R was allowed to interact as an analyte to measure the change in binding amount between antigen-antibody. The running buffer was used to dilute the antigen.

[3] = Biacore T200: binding of humanized SMB0002 to MTA; details: 37° C.; read-out: Affinity KD, MTA
Description: (§1) CaptureSelect™ Biotin Anti-IgG-CH1 Conjugate (Thermo fisher scientific), which is a biotinylated anti-human IgG CH1 molecule, was bound to Sensor Chip SA (GE Healthcare) onto which streptavidin was immobilized in advance, then humanized SMB0002 was allowed to be captured, and MTA (Sigma-Aldrich) or adenosine (Wako) was allowed to interact with humanized SMB0002. 50 mM Tris-HCl, 150 mM NaCl (Takara, T903), 0.02% (w/v) Tween20, 5% DMSO was used as the running buffer. MTA or adenosine was allowed to interact with humanized SMB0002 for 42 seconds at a flow rate of 100 μL/min and then dissociated from the antibody in the running buffer. The interaction was measured at 37° C., and the same buffer as the running buffer was used to dilute MTA or adenosine.
(§2) The dissociation constant KD (M) was calculated based on the binding rate constant ka (1/Ms) and the dissociation rate constant kd (1/s), which are kinetic parameters calculated from the sensorgrams obtained by the measurement. Alternatively, the dissociation constant KD (M) was calculated using steady state analysis. Biacore T200 Evaluation Software (GE Healthcare) was used to calculate each parameter.

[4] = Biacore T200: binding of humanized SMB0002 to adenosine; details: 37° C.; read-out: Affinity KD, Adenosine
Description: as §1, §2

[5] = Biacore T200: rabbit B cell cloning antibodies, binding to MTA; details: Biacore T200, 25° C.; read-out: Affinity KD, MTA
Description: (§3) The antibody of interest was captured on Sensor Chip Protein A (GE healthcare) with protein A pre-immobilized, or on an immobilized surface prepared by binding onto Streptavidin-immobilized Sensor chip SA (GE Healthcare) the Capture Select Biotin Anti-IgG-Fc (Hu) (Thermo fisher scientific), which is a biotinylated anti-human IgG CH1 molecule, and interacted with MTA (Sigma-Aldrich) or MTA analogs. As MTA analogs, adenosine (Wako) (measured concentration in tumor tissue: 182 nM) and S-(5′-adenosyl)-L-homocysteine, (SAH) (Sigma-Aldrich) (measured concentration in tumor tissue: 30 nM) were selected based on the structural similarity to MTA and the concentration in tumor tissue of tumor-bearing mice of an MTAP-deficient cell line. 20 mM ACES-NaOH, 150 mM NaCl, 0.05% Tween20, 0.05% DMSO was used as the running buffer. MTA or adenosine or SAH was allowed to interact at a flow rate of 30 μL/min for 120 seconds and then dissociated in the running buffer. The interaction was measured at 25° C. and the same buffer as the running buffer was used to dilute MTA and its analogs.
(§4) The dissociation constant […]) (M) was calculated based on the binding rate constant ka (1/Ms) and the dissociation rate constant kd (1/s), which are kinetic parameters calculated from the sensorgrams obtained by the measurement. Alternatively, the dissociation constant KD (M) was calculated using steady state analysis. […]

[6] = Biacore T200: rabbit B cell cloning antibodies, binding to adenosine; details: Biacore T200, 25° C.; read-out: Affinity KD, Adenosine
Description: as §3, §4

[7] = Biacore T200: rabbit B cell cloning antibodies, binding to SAH; details: Biacore T200, 25° C.; read-out: Affinity KD, SAH
Description: as §3, §4

[8] = Surface plasmon resonance: humanized MTA0303 and humanized MTA0330, binding to MTA; details: humanized antibodies; 25° C.; read-out: Affinity KD, MTA
Excerpt: (§5) […] (GE Healthcare) was used to analyze binding to MTA and MTA analogs (adenosine, SAH) to verify whether humanized MTA0303 and humanized MTA0330 specifically bind to MTA.
as §3, with “(Sigma-Aldrich),” for “(Sigma-Aldrich)”, “or” for “or MTA analogs. As MTA analogs,”, “(Wako), or” for “(Wako) (measured concentration in tumor tissue: 182 nM) and”, “(Sigma-Aldrich).” for “(Sigma-Aldrich) (measured concentration in tumor tissue: 30 nM) were selected based on the structural similarity to MTA and the concentration in tumor tissue of tumor-bearing mice of an MTAP-deficient cell line.”, “MTA, or adenosine, or SAH.” for “MTA and its analogs.”
as §2, with “[…]” for “T200”

[9] = Surface plasmon resonance: humanized MTA0303 and humanized MTA0330, binding to SAH; details: humanized antibodies; 25° C.; read-out: Affinity KD, SAH
Excerpt: as §5
as §3, with “(Sigma-Aldrich),” for “(Sigma-Aldrich)”, “or” for “or MTA analogs. As MTA analogs,”, “(Wako), or” for “(Wako) (measured concentration in tumor tissue: 182 nM) and”, “(Sigma-Aldrich).” for “(Sigma-Aldrich) (measured concentration in tumor tissue: 30 nM) were selected based on the structural similarity to MTA and the concentration in tumor tissue of tumor-bearing mice of an MTAP-deficient cell line.”, “MTA, or adenosine, or SAH.” for “MTA and its analogs.”
as §2, with “[…]” for “T200”

[10] = Surface plasmon resonance: humanized MTA0303 and humanized MTA0330, binding to adenosine; details: humanized antibodies; 25° C.; read-out: Affinity KD, Adenosine
Excerpt: as §5
as §3, with “(Sigma-Aldrich),” for “(Sigma-Aldrich)”, “or” for “or MTA analogs. As MTA analogs,”, “(Wako), or” for “(Wako) (measured concentration in tumor tissue: 182 nM) and”, “(Sigma-Aldrich).” for “(Sigma-Aldrich) (measured concentration in tumor tissue: 30 nM) were selected based on the structural similarity to MTA and the concentration in tumor tissue of tumor-bearing mice of an MTAP-deficient cell line.”, “MTA, or adenosine, or SAH.” for “MTA and its analogs.”
as §2, with “[…]” for “T200”

B1: C03H-BH076N17/C03L-KT0: antibody binding hIL-6R MTA-dependently; heavy chain variable region SEQ ID NO: 54, light chain variable region SEQ ID NO: 55 (antibody, V domains shown)
VH: QVQLVQSGAEVKKPGSSVKVSCKASGGTFSSYAISWVRQAPGQGLEWMGGIIPIFGTANYAQKFQGRVTITADESTSTAYMELSSLRSEDTAVYYCARFHVMSSFEIWGQGTLVTVSS
VL: DIQMTQSPSSLSASVGDRVTITCRASQSISSYLNWYQQKPGKAPKLLIYAASSLQSGVPSRFSGSGSGTDFTLTISSLQPEDFATYYCLQFNNDPLTFGGGTKVEIK
hIL-6R [1]; different concentrations of MTA
  amount of binding to hIL-6R: showed stronger binding activity to hIL-6R as MTA concentration increased
hIL-6R [1]; different concentrations of adenosine
  amount of binding to hIL-6R: no binding to hIL-6R was observed at any concentration

B2: 6RS2T007H-F760mnN17/6RS2T007L-KT0: MTA-dependent anti-hIL-6R antibody; H-chain variable region SEQ ID NO: 57, L-chain variable region SEQ ID NO: 58 (antibody, V domains shown)
VH: QVQLVQSGAEVKKPGASVKVSCKVSNIVLMQHTYGWVRQPPGKGLEWIGIIGGDGHAWYPRWVKGRFTISKDNSKNQVVLTMTNMDPVDTATYYCARGGKDGFTNAWDPWGQGTLVTVSS
VL: DIQLTQSPSSLSASVGDRVTITCQSSQSVFNNNGLSWYQQKPGQPPKLLIYDASTLASGVPSRFSGSGSGTDFTLTINSLEAEDAATYYCHGSQATQIWWDNAFGGGTEVVVK
hIL-6R [2]
  amount of antigen (hIL-6R) binding: changes stepwise according to the MTA concentration

B3: Humanized SMB0002: adenosine-binding antibody, library template; heavy chain variable region SEQ ID NO: 31, light chain variable region SEQ ID NO: 32 (antibody, V domains shown)
VH: QVQLVQSGAEVKKPGASVKVSCKVSGIDLTNYAMGWVRQPPGKGLEWIGIIGADSSTWYPSWVKGRFTISKDTSKNQVVLTMTNMDPVDTATYYCARGRFVGYTNAFDPWGQGTLVTVSS
VL: B2 VL with F30W, G34Y, Q94Y, T96N, Q97S, I98G, W100Y
[3]
  Kd: 3.8 µM
[4]
  Kd: 0.064 µM

B4: MTA0303: anti-MTA antibody from rabbit B cell cloning; H-chain variable region SEQ ID NO: 46, L-chain SEQ ID NO: 47 (antibody, V domains shown)
VH: QSLEESGGDLVKPGASLTLTCTASGFSFSSAYWMCWVRQAPGKGLEWTACIFASAIYAGSGGSTYYASWAKGRFTISKTSSTTVTLQMTSLTAADTATYFCATGYGSSGGGFDELWGPGTLVTVSS
VL: AQVLTQTASSVSAAVGGTVTISCQSSESVYANRLSWYQQKPGQPPKLLIYSASTLPSGVPSRFKGSGSGTQFTLTISDLECDDVGTYYCAGLYSGNIPAFGGGTEVVVK
[5]
  Kd: 0.00246 µM
[6]
  Kd: 11.4 µM
[7]
  Kd: 119 µM

B5: MTA0330: anti-MTA antibody from rabbit B cell cloning; H-chain variable region SEQ ID NO: 48, L-chain SEQ ID NO: 49 (antibody, V domains shown)
VH: QEQLVESGGDLVTPGASLTLTCKASGFSFSSSYWMCWVRQAPGKGLEWIACIYSGDGSTYYASWVNGRFTISKTSSTTVTLQMTSLTAADTATYFCARENIFGSGALNLWGPGTLVTVSS
VL: QAVVTQTPSPVSAAVGGTVTISCHSSKSVYSNNRLAWYQQKPGQPPKLLIYQASTLASGVASRFSGSGSGTQFTLTISGVQCDDAATYYCQGTYYSSGFYFAFGGGTEVVVK
[5]
  Kd: 0.0144 µM
[6]
  Kd: 63.5 µM
[7]
  Kd: 187 µM

B6: HumanizedMTA0303 (antibody, V domains shown)
VH: QVQLVESGGGLVKPGGSLRLSCAASGFTFSSAYWMCWVRQAPGKGLEWVACIFASAIYAGSGGSTYYASWAKGRLTISKDTSKNQVVLTMTNMDPVDTATYYCATGYGSSGGGFDELWGQGTLVTVSS
VL: EIVLTQSPATLSLSPGERATLSCQSSESVYANRLSWYQQKPGQPPKLLIYSASTLPSGIPARFSGSGSGTDFTLTISRLEPEDFAVYYCAGLYSGNIPAFGQGTKVEIK
[8]
  Kd: 0.0108 µM
[9]
  Kd: 211 µM
[10]
  Kd: 41.4 µM

B7: HumanizedMTA0330 (antibody, V domains shown)
VH: QVQLVESGGGLVQPGGSLRLSCSASGFTFSSSYWMCWVRQAPGKGLEWVGCIYSGDGSTYYASWVNGRLTISKDTSKSQVVLTMTNMDPVDTATYYCARENIFGSGALNLWGQGTLVTVSS
VL: DIQVTQSPSSLSASVGDRVTITCHSSKSVYSNNRLAWYQQKPGQPPKLLIYQASTLASGVPSRFSGSGSGTEFTLTISSLQPDDFATYYCQGTYYSSGFYFAFGQGTKVEIK
[8]
  Kd: 0.00888 µM
[9]
  Kd: 84.7 µM
[10]
  Kd: 44.8 µM
